For one substance, stoichiometry N results are on record in publication PMC3169403 (Acta Crystallographica Section F: Structural Biology and …, 2011).

The term stoichiometry N denotes a count of units in the complex or per binding partner.

The assay deals with glutaryl-CoA dehydrogenase from Burkholderia pseudomallei (Burkholderia pseudomallei strain 1710b). As to the kind of experiment: crystal structure.

On to “glutaryl-CoA dehydrogenase from Burkholderia pseudomallei (enzyme)”, for which the stoichiometry N was 4.
